Laboratory results from patent publication US20060026702A1, “Phosphoinositide 3-kinase mediated inhibition of GPCRs” (DUKE UNIVERSITY, priority 2002, published 2006).

Legend:
β2AR = β2AR sequestration in HEK-293 cells by 125I-Cyanopindolol binding; format: cell-based; conditions: 1 μM isoproterenol, 0-30 min; FLAG-HEAT co-transfected
Experimental: Determination of β2AR Sequestration in HEK-293 Cells by ^125I-Cyanopindolol (CYP) Binding—β2AR sequestration was performed as previously described. Briefly, HEK-293 cells were plated at a density of 2.5×10^6 cells/dish and transfected the following day with plasmids containing either the β2AR (150-250 ng), β2AR (250 ng) and HEAT domain (4 μg), PI3Kγ (4.0 μg) or ΔPI3Kγ (4.0 μg) cDNAs. Twelve hours after transfection cells were split into six well Falcon plates at a density of 750,000 cells/well. […] To determine the amount of internalized receptor, 100 μl aliquots of whole cells were added to 150 μl of binding buffer (75 mM Tris-HCl, 10 mM MgCl2, 5 mM EDTA (pH 7.5)). Total binding was determined in the presence of 175 pM ^125I-CYP alone, the number of internalized receptors were determined by using 175 pM ^125I-CYP plus 100 nM CGP12177, and non-specific binding was determined using 175 pM ^125I-CYP plus 1 μM propranolol. Sequestration was calculated as the ratio of (specific receptor binding of ^125I-CYP in the presence of CGP12177)/(specific receptor binding of ^125I-CYP in the absence of CGP12177).

βARK1 = molecular target: T1, βARK1 (Bos taurus, UniProt P21146); assay: Co-immunoprecipitation and GST pull-down with purified βARK1; format: binding; conditions: immunoprecipitated FLAG-HEAT or PI3KΔHEAT-HA
T1 construct: gift from Dr. Robert Lefkowitz
T1 sequence (P21146 1-689): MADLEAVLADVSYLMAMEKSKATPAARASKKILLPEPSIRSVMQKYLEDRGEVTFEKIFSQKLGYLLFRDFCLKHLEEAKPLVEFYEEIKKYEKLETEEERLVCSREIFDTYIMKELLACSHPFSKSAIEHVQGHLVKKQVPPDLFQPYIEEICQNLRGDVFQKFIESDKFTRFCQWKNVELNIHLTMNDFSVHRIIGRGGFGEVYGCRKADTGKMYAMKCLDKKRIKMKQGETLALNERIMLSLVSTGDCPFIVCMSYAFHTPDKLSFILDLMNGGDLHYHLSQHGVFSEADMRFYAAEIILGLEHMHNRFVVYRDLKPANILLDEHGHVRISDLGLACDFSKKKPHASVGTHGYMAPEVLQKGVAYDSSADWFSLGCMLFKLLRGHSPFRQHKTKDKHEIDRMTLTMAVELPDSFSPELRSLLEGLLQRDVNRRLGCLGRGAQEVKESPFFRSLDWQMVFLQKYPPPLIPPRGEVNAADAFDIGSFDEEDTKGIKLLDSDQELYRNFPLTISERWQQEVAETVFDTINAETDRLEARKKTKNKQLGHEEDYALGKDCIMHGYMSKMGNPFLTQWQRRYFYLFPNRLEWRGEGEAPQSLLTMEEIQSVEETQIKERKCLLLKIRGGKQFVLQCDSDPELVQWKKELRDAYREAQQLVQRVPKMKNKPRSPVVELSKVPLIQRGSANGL
Experimental: GST Fusion Protein Expression and Pull-down Experiments—Plasmid DNAs were transformed in Escherichia coli BL21 cells. Overnight cultures were grown in LB medium supplemented with ampicillin (100 μg/ml), diluted to an A600 of 0.2 in the same medium and grown for another 1 hr at 37° C. Cultured cells were then induced with 0.1 mM isopropyl-1-thio-β-D-galactopyranoside for 2 hr. Cell were then pelleted, washed once with 1× phosphate-buffered saline and resuspended in 1× phosphate-buffered saline containing 1 mM phenylmethylsulfonyl fluoride, 2 mg/ml lysozyme and incubated for 15 min on ice. Cells were lysed by adding Triton X-100 1%. Solublized cells were incubated with DNase (300 units) for 15 min on ice and centrifuged at 13,000 rpm for 10 min.
Glutathione-Sepharose beads were added to the supernatant and gently agitated at 4° C. for 2 hr. Beads were washed three times with ice cold 1×PBS containing 1% Triton X-100 followed by three washes with cold PBS without detergent. Protein concentration was determined using a DC protein assay kit (Bio Rad), and the integrity of the fusion protein was analyzed by SDS-polyacrylamide gel electrophoresis and Coomassie staining.
The beads were spun and washed three times with binding buffer followed by three washes with binding buffer without detergent. The beads were resuspended in SDS gel loading buffer and resolved by gel electrophoresis, immunblotting and detection was carried out described later.
FLAG-HEAT and PI3KΔHEAT proteins were immunoprecipitated from cell extracts using monoclonal FLAG and HA antibodies respectively, fractionated by SDS-PAGE and analyzed by immunoblotting with βARK1 monoclonal antibody. […] Levels of expression of HEAT and PI3KΔHEAT proteins were similar (FIG. 8B, lower panel).
To investigate whether there was a direct physical interaction between the HEAT domain of PI3K and βARK1, GST-HEAT fusion protein containing 535-732 amino acid residues of PI3Kγ was produced, which including the entire HEAT domain and flanking upstream 10 amino acids and downstream 7 amino acids. […]

B1: HEAT: 197 amino acid HEAT domain of PI3Kγ, FLAG epitope-tagged (SEQ ID NO: 2), overexpressed in cells (protein, listed as Homo sapiens)
chain: MDYKDDDDKHPIALPKHQPTPDDRVRAEMPNQLRKQLEAIIATDTAEDKELLWHFRYESLKHPKAYPKLFSSVKWGQQEIVAKTYQLLARREVWDQSALDVGLTMQLLDCNFSDENVRAIAVQKLESLEDDDVLHYLLQLVQAVKFEPYHDSALARFLLKRGLRNKRIGHFLFWFLRSEIAQSRHYQQRFAVILEAYLRGCGTA
modifications: FLAG tag
attenuation in the rate of β2AR sequestration (β2AR): > 60%
association with purified βARK1 (immune complexes from HEK 293 extracts) (βARK1): found to associate
